# Reference: publication PMC3088474 (Current biology : CB, 2011)
# B1: GST-Mid1 1–100 (domain or fragment, fission yeast, UniProt P78953 1-100, looked up)
# chain: MKEQEFSYREAKDVSLDSKGLENSFLSSPNREKTPLFFEGNSNETSGYDQTKNFTHGDGDMSLGNLSELNVATDLLESLDLRSMYMHGYGHLDSSFSSQH
# Target: T1, MBP-Rng2-1306-end (fission yeast, UniProt O14188 1306-1489)
# T1 sequence (looked up): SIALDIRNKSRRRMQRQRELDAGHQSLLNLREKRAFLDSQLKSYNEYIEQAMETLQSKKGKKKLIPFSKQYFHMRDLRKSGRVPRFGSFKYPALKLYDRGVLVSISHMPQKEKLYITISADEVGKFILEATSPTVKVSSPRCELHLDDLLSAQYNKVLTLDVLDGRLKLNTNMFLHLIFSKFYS
# Assay: pull-down
binder,measurement,value
B1,binding result,binds
